Measured values taken from publication PMC4183573, “Cyclophilin A Associates with Enterovirus-71 Virus Capsid and Plays an Essential Role in Viral Infection as an Uncoating Regulator” (PLoS Pathogens, 2014).
Where no end group is shown, it is not given here.

Target: T1, recombinant human CypA without a GST tag (human, UniProt P62937 1-165)
T1 construct: cyclophilin A (CypA), human, cloned into pGEX-6p-1; source: E. coli BL21 (DE3), purified (GST column, PreScission Protease, Superdex-75); not shown: GST, N-terminal, cleaved
Assay: pull-down; recombinant human CypA (200 µg) with 50 µl glutathione-sepharose beads holding GST, GST-1S or GST-1P (200 µg) in 300 µl buffer (50 mM Tris-HCl pH 8.0, 150 mM NaCl, 1% Nonidet P-40, 2 mM EDTA), overnight at 4°C; eluted with GSH; blot for GST and CypA
Details: both partners purified

| Binder | binding result |
| --- | --- |
| GSSKSKYPL (also: fused to GST, H-I loop of the capsid protein VP1 of EV71, residues 239-247; numbers count on: the VP1 protein, not the polypeptide; source: E. coli BL21 (DE3), held on glutathione-sepharose (GST column) beads; not shown: GST, N-terminal, kept) [GST-1S: peptide of the H-I loop of EV71 VP1 (239-GSSKSKYPL-247) fused to GST] | binds |
| GSSKPKYPL (also: fused to GST, H-I loop of the capsid protein VP1 of EV71, residues 239-247, with S243P; numbers count on: the VP1 protein, not the polypeptide; source: E. coli BL21 (DE3), held on glutathione-sepharose (GST column) beads; not shown: GST, N-terminal, kept) [GST-1P: H-I loop of EV71 VP1 with the S243P substitution (239-GSSKPKYPL-247) fused to GST] | binds |
